Measured values from paper doi:10.1101/2020.11.17.386581 (bioRxiv, 2020).

Biological target: recombinant human tau 2N4R (as used in SPR) (human, UniProt P10636-8 1-441)
Assay: SPR

B1: Recombinant human SORL1 aa 82-753 protein (domain or fragment, UniProt Q92673 82-753, looked up)
chain: SAALQPEPIKVYGQVSLNDSHNQMVVHWAGEKSNVIVALARDSLALARPKSSDVYVSYDYGKSFKKISDKLNFGLGNRSEAVIAQFYHSPADNKRYIFADAYAQYLWITFDFCNTLQGFSIPFRAADLLLHSKASNLLLGFDRSHPNKQLWKSDDFGQTWIMIQEHVKSFSWGIDPYDKPNTIYIERHEPSGYSTVFRSTDFFQSRENQEVILEEVRDFQLRDKYMFATKVVHLLGSEQQSSVQLWVSFGRKPMRAAQFVTRHPINEYYIADASEDQVFVCVSHSNNRTNLYISEAEGLKFSLSLENVLYYSPGGAGSDTLVRYFANEPFADFHRVEGLQGVYIATLINGSMNEENMRSVITFDKGGTWEFLQAPAFTGYGEKINCELSQGCSLHLAQRLSQLLNLQLRRMPILSKESAPGLIIATGSVGKNLASKTNVYISSSAGARWREALPGPHYYTWGDHGGIITAIAQGMETNELKYSTNEGETWKTFIFSEKPVFVYGLLTEPGEKSTVFTIFGSNKENVHSWLILQVNATDALGVPCTENDYKLWSPSDERGNECLLGHKTVFKRRTPHATCFNGEDFDRPVVVSNCSCTREDYECDFGFKMSEDLSLEVCVPDPEFSGKSYSPPVPCPVGSTYRRTRGYRKISGDTCSGGDVEARLEGELVPCP
In the case of B1, the Kd is reported as 41 ± 9 nM.
